Data as given in patent publication US20220296726A1 (Bicycle, published 2022).
*1 amine or outer side, *2 acyl side, *3 side chain or, on linkers, in order; H or OH if unused. Bridges are numbered along the chain shown (N, C = ends). Where no end group is shown, it is not given here. [ ]: non-standard residue; d: D form. The star is where a group is joined. TATA = O=C(CC[*:1])N1CN(C(=O)CC[*:2])CN(C(=O)CC[*:3])C1; Phe(4-CF3) = N[C@@H](Cc1ccc(C(F)(F)F)cc1)C(=O)O; Phe(3-Me) = Cc1cccc(C[C@H](N)C(=O)O)c1; 2Nal = N[C@@H](Cc1ccc2ccccc2c1)C(=O)O; Pent4ynoyl = C#CCCC(=O)*; Aib = CC(C)(N)C(=O)O

Biological target: T1, Human TREM2 extracellular domain (ECD), residues 19-131, C-terminally biotinylated, deglycosylated (human, UniProt Q9NZC2 19-131, C-terminally biotinylated; deglycosylated)
T1 construct: range 19-131; loaded on Superstreptavidin biosensors; also called triggering receptor expressed on myeloid cells 2; Human BLI (deglycosylated)
T1 sequence (looked up): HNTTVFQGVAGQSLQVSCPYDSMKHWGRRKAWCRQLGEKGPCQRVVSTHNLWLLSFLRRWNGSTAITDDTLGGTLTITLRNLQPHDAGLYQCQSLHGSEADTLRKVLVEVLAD
Assay: BLI steady state, deglycosylated human TREM2 ECD on sensor
Procedure: Bio-layer interferometry was performed on an Octet RED384® system (Sartorius) at 25° C. in a buffer containing 50 mM HEPES (pH 7.5), 150 mM NaCl and 0.1% Tween. […] Reference wells containing no bicycle peptides and reference sensors loaded with an unrelated protein (His-tagged MLLT3a) were subjected to the same assay protocol and double reference subtraction was used for processing to account for non-specific binding. Traces were analysed using Octet Software (Version 11.0). Association and dissociation curves were globally fit and the response at equilibrium (Req) plotted against concentration to obtain steady-state KD values.

Binder | Kd
CSEYCFWPXYHC (N-terminal acetyl (Ac); CiSEYCiiFWP[4Pal]YHCiii; Ci, Cii, Ciii on TATA scaffold) [BCY20569] | 3800 nM
CSEYCFWPFXHC (N-terminal acetyl (Ac); CiSEYCiiFWPF[K(PYA)]HCiii; Ci, Cii, Ciii on TATA scaffold) [BCY20102] | 1460 nM
CSEYCFWXFYHC (N-terminal acetyl (Ac); CiSEYCiiFW[Pip]FYHCiii; Ci, Cii, Ciii on TATA scaffold) [BCY20069] | 1460 nM
CSEYCFXPFYHC (N-terminal acetyl (Ac); CiSEYCiiF[5FTrp]PFYHCiii; Ci, Cii, Ciii on TATA scaffold) [BCY20058] | 1430 nM
CSEYCFWXFYHC (N-terminal acetyl (Ac); CiSEYCiiFW[Aze]FYHCiii; Ci, Cii, Ciii on TATA scaffold) [BCY20068] | 2540 nM
Ac-CSEYCFWPK(Pent4ynoyl)YHC (linker 1-5-12 via TATA) [BCY20101] | 18600 nM
CSEYCXWPFYHC (N-terminal acetyl (Ac); CiSEYCii[4Pal]WPFYHCiii; Ci, Cii, Ciii on TATA scaffold) [BCY20567] | 1020 nM
CSEYCFWXFYHC (N-terminal acetyl (Ac); CiSEYCiiFW[Cis-HyP]FYHCiii; Ci, Cii, Ciii on TATA scaffold) [BCY20067] | 23600 nM
CSEYCFWPFXHC (N-terminal acetyl (Ac); CiSEYCiiFWPF[3tBuTyr]HCiii; Ci, Cii, Ciii on TATA scaffold) [BCY20080] | 375 nM
CSEYCFXPFYHC (not fully specified; N-terminal acetyl (Ac); CiSEYCiiF[AzaTrp]PFYHCiii; Ci, Cii, Ciii on TATA scaffold) [BCY20062] | 3440 nM
CSEYCFXPFYHC (N-terminal acetyl (Ac); CiSEYCiiF[6FTrp]PFYHCiii; Ci, Cii, Ciii on TATA scaffold) [BCY20057] | 2560 nM
CSEYCXWPFYHC (N-terminal acetyl (Ac); CiSEYCii[2FPhe]WPFYHCiii; Ci, Cii, Ciii on TATA scaffold) [BCY20051] | 2040 nM
CSEYCFWPFYHC-NH2 (linker 1-5-12 via TATA) [BCY18219] | 700 nM
Ac-CSEYCF[2Nal]PFYHC (linker 1-5-12 via TATA) [BCY20056] | 4690 nM
Ac-CSEYCF[Phe(4-CF3)]PFYHC (linker 1-5-12 via TATA) [BCY20065] | 7280 nM
CSEYCFWPFYXC (N-terminal acetyl (Ac); CiSEYCiiFWPFY[HArg]Ciii; Ci, Cii, Ciii on TATA scaffold) [BCY20575] | 375 nM
Ac-CSEYCFW[Aib]FYHC (linker 1-5-12 via TATA) [BCY19670] | 30000 nM
Ac-CSEYCF[Phe(3-Me)]PFYHC (linker 1-5-12 via TATA) [BCY20064] | 5240 nM
ACSEYCFWPFYSCA (linker 2-6-13 via TATA) [BCY17669] | 1200 nM
ACSEYCFWPFYPCA (linker 2-6-13 via TATA) [BCY17670] | 1700 nM
ACSEYCFWPFAHCA (linker 2-6-13 via TATA) [BCY18227] | 3100 nM
ACSAYCFWPFYHCA (linker 2-6-13 via TATA) [BCY18221] | 1800 nM
ACSEYCFWPFFNCA (Ci, Cii, Ciii on TATA scaffold) [BCY17672] | 2000 nM
ACAEYCFWPFYHCA-NH2 (linker 2-6-13 via TATA; N-terminus assumed; SMILES C[C@H](N)C(=O)N[C@H]1CSCCC(=O)N2CN3CN(C2)C(=O)CCSC[C@H](NC(=O)[C@H](Cc2ccc(O)cc2)NC(=O)[C@H](CCC(=O)O)NC(=O)[C@H](C)NC1=O)C(=O)N[C@@H](Cc1ccccc1)C(=O)N[C@@H](Cc1c[nH]c2ccccc12)C(=O)N1CCC[C@H]1C(=O)N[C@@H](Cc1ccccc1)C(=O)N[C@@H](Cc1ccc(O)cc1)C(=O)N[C@@H](Cc1c[nH]cn1)C(=O)N[C@H](C(=O)N[C@@H](C)C(N)=O)CSCCC3=O) [BCY18220] | 2000 nM
ACSEYCFWPFWNCA (Ci, Cii, Ciii on TATA scaffold) [BCY17671] | 900 nM
ACSEYCFWPFYLCA (linker 2-6-13 via TATA) [BCY19777] | ~1200 nM
ACSEYCFWAFYHCA (linker 2-6-13 via TATA) [BCY18225] | 14000 nM

Binder | Kd
ACSEYCFWPFYACA (linker 2-6-13 via TATA) [BCY18228] | 2600 nM
Ac-CSEYCFWPFYHCK(Pent4ynoyl) (linker 1-5-12 via TATA) [BCY20085] | 1620 nM
Ac-CSEYCFWPFYHC-NH2 (linker 1-5-12 via TATA) [BCY18217] | 900 nM
Ac-CSEYCFWPFDHC (linker 1-5-12 via TATA) [BCY20570] | 1870 nM
Ac-CSEYCFWPFYQC (linker 1-5-12 via TATA) [BCY20572] | 1060 nM
Ac-CSEYCFWPF[dA]HC (linker 1-5-12 via TATA) [BCY20093] | 4680 nM
Ac-C[dA]EYCFWPFYHC (linker 1-5-12 via TATA) [BCY20086] | 18000 nM
Ac-CDEYCFWPFYHC (linker 1-5-12 via TATA) [BCY20563] | 3170 nM
Ac-CSEYCYWPFYHC (linker 1-5-12 via TATA) [BCY20566] | 2140 nM
Ac-CSEYCFWPLYHC (linker 1-5-12 via TATA) [BCY20070] | 1660 nM
Ac-CS[dA]YCFWPFYHC (linker 1-5-12 via TATA) [BCY20087] | 18000 nM
Ac-CSEYCFWPFYFC (linker 1-5-12 via TATA) [BCY20576] | 1350 nM
Ac-CSEYCFWPFEHC (linker 1-5-12 via TATA) [BCY20571] | 2210 nM
Ac-CSEYCFWPFYDC (linker 1-5-12 via TATA) [BCY20573] | 1960 nM
Ac-CSEYCFWPFYNC-NH2 (linker 1-5-12 via TATA; SMILES CC(=O)N[C@H]1CSCCC(=O)N2CN3CN(C2)C(=O)CCSC[C@H](NC(=O)[C@H](Cc2ccc(O)cc2)NC(=O)[C@H](CCC(=O)O)NC(=O)[C@H](CO)NC1=O)C(=O)N[C@@H](Cc1ccccc1)C(=O)N[C@@H](Cc1c[nH]c2ccccc12)C(=O)N1CCC[C@H]1C(=O)N[C@@H](Cc1ccccc1)C(=O)N[C@@H](Cc1ccc(O)cc1)C(=O)N[C@@H](CC(N)=O)C(=O)N[C@H](C(N)=O)CSCCC3=O) [BCY20083] | 1840 nM
Ac-CSEYCFWPFY[dA]C (linker 1-5-12 via TATA) [BCY20094] | 2530 nM
Ac-CSEYCFWPFYPC (linker 1-5-12 via TATA) [BCY20082] | 1930 nM
Ac-CSEYCFWPYYHC (linker 1-5-12 via TATA) [BCY20568] | 2280 nM
Ac-CSEYCFWPFYEC (linker 1-5-12 via TATA) [BCY20574] | 1740 nM
Ac-CSEYCFWPFYSC (linker 1-5-12 via TATA) [BCY20084] | 1650 nM
CSXYCFWPFYHC (N-terminal acetyl (Ac); CiS[K(PYA)]YCiiFWPFYHCiii; Ci, Cii, Ciii on TATA scaffold) [BCY20096] | 2500 nM
Ac-CSEYCFWPFQYC (linker 1-5-12 via TATA) [BCY20220] | 1300 nM
Ac-CSYYCFWPFQYC (linker 1-5-12 via TATA) [BCY20221] | 690 nM
Ac-ACSEYCFWPFYHCA-NH2 (linker 2-6-13 via TATA) [BCY18218] | 2000 nM
CSEYCFWPXYHC (N-terminal acetyl (Ac); CiSEYCiiFWP[3MePhe]YHCiii; Ci, Cii, Ciii on TATA scaffold) [BCY20072] | 1670 nM
Ac-CSEYCFWPFFLC (linker 1-5-12 via TATA) [BCY20222] | 1570 nM
